Experimental data as given in the supplement of paper PMC7877785.
± gives the uncertainty stated by the source.

Assay: self-splicing fitness, log relative to wild type (ln ratio); higher = more splicing; Tetrahymena group I intron in knt gene, E. coli kanamycin selection, DiMSum; sequences stand for … in CUCUCU…GGAGGGAAAAGUUAUCAGGCAUGCACCUGGUAGCUAGUCUUUAAACCAAUAGAUUGCAUCGGUUUAAAAGGCAAGACCGUCAAAUUGCGGGAAAGGGGUCAACAGCCGUUCAGUACCAAGUCUCAGGGGAAACUUUGAGAUGGCCUUGCAAAGGGUAUGGUAAUAAGCUGACGGACAUGGUCCUAACCACGCAGCCAAGUCCUAAGUCAACAGAUCUUCUGUUGAUAUGGAUGCAGUUCACAGACUAAAUGUCGGUCGGGGAAGAUGUAUUCUUCUCAUAAGAUAUAGUCGGACCUCUCCUUAAUGGGAGCUAGCGGAUGAAGUGAUGCAACACUGGAGCCGCUGGGAACUAAUUUGUAUGCGAAAGUAUAUUGAUUAGUUUUGGAGUACUCGUGGUCG
Method in brief: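 A randomised library covering all eight P1ex-region intron nucleotides was built with the intron in the knt kanamycin-resistance gene on pET-22b(+) and held in E. coli BL21(DE3). Cells were grown overnight at 37°C or 30°C on LB agar, with or without 25 μg/mL kanamycin, plus 100 μg/mL carbenicillin, 50 μM IPTG and 0.2% rhamnose, and pooled colonies were amplicon-sequenced on an Illumina HiSeq 2500. DiMSum fitness is the error-weighted combination of wild-type-normalised replicate fold changes, kanamycin versus none.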

Sequence	self-splicing fitness (ln) (30 °C)	self-splicing fitness (ln) (37 °C)
GUAGAGCAAUAUUACGACAG	-3.49 ± 0.33	-1.86 ± 0.3
AGUCAGCAAUAUUACGACAA	-0.509 ± 0.098	0.177 ± 0.13
GGUUAGCAAUAUUACGUCCC		-2.36 ± 0.34
ACAAAGCAAUAUUACGCCCU	-0.361 ± 0.098	0.683 ± 0.14
UCCCAGCAAUAUUACGUAGC	-2.68 ± 0.12	-2.19 ± 0.16
UGACAGCAAUAUUACGAGUA	-2.37 ± 0.17	-0.712 ± 0.11
CCACAGCAAUAUUACGUAAC	-3.47 ± 0.2	-1.35 ± 0.16
CCAUAGCAAUAUUACGUGAC	-2.57 ± 0.13	-2.79 ± 0.3
GCCGAGCAAUAUUACGCGGA	-1.04 ± 0.17	0.224 ± 0.14
AAGGAGCAAUAUUACGGAGA	-3.62 ± 0.31	-2.35 ± 0.27
UCAUAGCAAUAUUACGGCCA		-0.442 ± 0.46
CUCCAGCAAUAUUACGCUUG	-3.52 ± 0.19	-2.96 ± 0.21
GUCAAGCAAUAUUACGACGG	-4.06 ± 0.37	-1.71 ± 0.34
GAUGAGCAAUAUUACGCCAU	-2.56 ± 0.14	
CUCAAGCAAUAUUACGGUGA	-2.9 ± 0.12	-1.29 ± 0.12
UGCAAGCAAUAUUACGUCUU	-4.52 ± 0.31	-0.686 ± 0.1
AAUAAGCAAUAUUACGAAUU	-1.93 ± 0.1	-1.58 ± 0.12
GGUUAGCAAUAUUACGUAUU	-1.14 ± 0.11	-0.191 ± 0.1
CUGCAGCAAUAUUACGAGCC	-2.9 ± 0.31	
GGCAAGCAAUAUUACGUACC	-1.35 ± 0.065	-0.299 ± 0.083
GAUAAGCAAUAUUACGUGCU	-2.32 ± 0.18	-1.71 ± 0.19
CAGGAGCAAUAUUACGUGGU	-4.08 ± 0.23	-3.15 ± 0.23
GUUAAGCAAUAUUACGCGUG	-0.781 ± 0.1	-0.78 ± 0.099
GCGUAGCAAUAUUACGUAUG	-2.96 ± 0.3	-2 ± 0.24
CAGCAGCAAUAUUACGCUAG	-2.8 ± 0.16	-2.1 ± 0.21

Sequence	self-splicing fitness (ln) (30 °C)	self-splicing fitness (ln) (37 °C)
UUGCAGCAAUAUUACGGGCU	-1.6 ± 0.16	-1.17 ± 0.22
CCUUAGCAAUAUUACGUCCA		-1.92 ± 0.33
CGUAAGCAAUAUUACGUUAG	-1.34 ± 0.072	-0.964 ± 0.081
UAUGAGCAAUAUUACGUGUU	-3.34 ± 0.17	-2.99 ± 0.18
ACAGAGCAAUAUUACGGAAA	-3.38 ± 0.36	-2.81 ± 0.38
GUGCAGCAAUAUUACGAGCA	-3.43 ± 0.31	-1.18 ± 0.15
ACUCAGCAAUAUUACGGCCG	-1.87 ± 0.13	-0.609 ± 0.15
CUAAAGCAAUAUUACGCCCC	-1.15 ± 0.45	
AACUAGCAAUAUUACGUAAG	-1.22 ± 0.084	-1.65 ± 0.11
GGCUAGCAAUAUUACGCACA	-0.263 ± 0.12	0.1 ± 0.16
UUUAAGCAAUAUUACGCCGU	-1.49 ± 0.41	-1.84 ± 0.27
ACGUAGCAAUAUUACGACUG	-1.78 ± 0.13	-0.836 ± 0.15
GGAGAGCAAUAUUACGCGCA	-1.36 ± 0.19	-0.414 ± 0.21
GAAAAGCAAUAUUACGUCCC	-0.229 ± 0.17	0.0916 ± 0.2
GUGAAGCAAUAUUACGAACU	-2.15 ± 0.1	-0.516 ± 0.095
CUAGAGCAAUAUUACGAUCU	-4.31 ± 0.34	-2.29 ± 0.34
ACAGAGCAAUAUUACGCUGG	-3.47 ± 0.14	-2.53 ± 0.16
CAUCAGCAAUAUUACGAUAU	-1.76 ± 0.073	-0.599 ± 0.085
UACGAGCAAUAUUACGAAGU	-4.33 ± 0.39	-2.41 ± 0.24
GGACAGCAAUAUUACGGCCU	-2.3 ± 0.13	-1.13 ± 0.12
UAAAAGCAAUAUUACGCGCG	-0.577 ± 0.087	0.0302 ± 0.11
UGUUAGCAAUAUUACGCCUU	-0.953 ± 0.37	-1.4 ± 0.33
CGAUAGCAAUAUUACGGGGU	-3.87 ± 0.19	-3.11 ± 0.32
GACUAGCAAUAUUACGAUCU	-0.896 ± 0.087	-1.38 ± 0.096
AUUAAGCAAUAUUACGCAGU	-3.15 ± 0.21	-2.48 ± 0.21

Sequence	self-splicing fitness (ln) (30 °C)	self-splicing fitness (ln) (37 °C)
ACGAAGCAAUAUUACGGGUG	-1.74 ± 0.069	-1.36 ± 0.083
GGACAGCAAUAUUACGAGAU	-3.03 ± 0.14	-1.45 ± 0.13
AGGUAGCAAUAUUACGCACA	-0.467 ± 0.017	0.0312 ± 0.034
UCACAGCAAUAUUACGGAUA	-2.87 ± 0.16	-1.47 ± 0.12
GACCAGCAAUAUUACGCCCU	-0.482 ± 0.11	-0.286 ± 0.12
UUGCAGCAAUAUUACGUAUA	-1.32 ± 0.12	-1.01 ± 0.12
GCUUAGCAAUAUUACGGAAG	-2.07 ± 0.14	-1.68 ± 0.14
AAUCAGCAAUAUUACGUGAG	-0.184 ± 0.047	0.612 ± 0.077
GAGCAGCAAUAUUACGCAAC	-2.85 ± 0.28	-2.22 ± 0.45
ACCGAGCAAUAUUACGCAAG	-3.36 ± 0.17	-2.35 ± 0.18
GGAAAGCAAUAUUACGCUAU	-2.74 ± 0.28	-2.11 ± 0.21
GGCGAGCAAUAUUACGGAUA		-2.08 ± 0.37
UCCGAGCAAUAUUACGCCUG	-2.12 ± 0.36	-1.84 ± 0.31
ACGAAGCAAUAUUACGCCCA	-1.11 ± 0.17	-0.748 ± 0.26
CCCAAGCAAUAUUACGUGUG	-2.98 ± 0.071	-3.12 ± 0.094
ACACAGCAAUAUUACGCACU	-0.282 ± 0.045	0.182 ± 0.058
GCAUAGCAAUAUUACGGCUG	-1.97 ± 0.16	-1.22 ± 0.18
UUGAAGCAAUAUUACGAACU	-1.61 ± 0.21	0.568 ± 0.2
GAGUAGCAAUAUUACGGAUU	-1.41 ± 0.073	-0.46 ± 0.095
UGAAAGCAAUAUUACGCCAA	-1.13 ± 0.15	-0.806 ± 0.18
GCUGAGCAAUAUUACGUGCU	-3.42 ± 0.12	-3.39 ± 0.2
CACGAGCAAUAUUACGGCGC		-1.73 ± 0.4
GACUAGCAAUAUUACGUAAA	-0.826 ± 0.097	0.0101 ± 0.12
GGGAAGCAAUAUUACGCAAC	-3.36 ± 0.17	-1.03 ± 0.18
GGGCAGCAAUAUUACGUCAC		-1.18 ± 0.42

Sequence	self-splicing fitness (ln) (30 °C)	self-splicing fitness (ln) (37 °C)
AACAAGCAAUAUUACGCCUA	-0.12 ± 0.059	0.231 ± 0.065
GCGCAGCAAUAUUACGCAUC	-0.685 ± 0.092	-0.339 ± 0.098
GAAGAGCAAUAUUACGGUGA	-2.47 ± 0.16	-1.02 ± 0.096
UGCCAGCAAUAUUACGAGGA	-1.49 ± 0.17	-2.37 ± 0.22
UGUAAGCAAUAUUACGGGUG	-0.874 ± 0.18	-0.00955 ± 0.19
CGAAAGCAAUAUUACGUAAA	-2.45 ± 0.23	-1.92 ± 0.31
CCCCAGCAAUAUUACGAGGU	-3.6 ± 0.12	-2.23 ± 0.12
GCCAAGCAAUAUUACGGUUA	-0.632 ± 0.072	-0.00086 ± 0.07
AUCUAGCAAUAUUACGACGU	0.175 ± 0.057	0.669 ± 0.069
GGGCAGCAAUAUUACGCAGA	-1.43 ± 0.095	-0.514 ± 0.1
UGUCAGCAAUAUUACGCCCG	-0.222 ± 0.15	-0.125 ± 0.21
UGAAAGCAAUAUUACGUGUC	-0.712 ± 0.15	-2.32 ± 0.21
AGGAAGCAAUAUUACGUCUA	-0.335 ± 0.092	-0.143 ± 0.1
UUAAAGCAAUAUUACGAGGG	-2.1 ± 0.17	-1.12 ± 0.26
GCUAAGCAAUAUUACGGGGG	-3.45 ± 0.28	-1.89 ± 0.22
GUGAAGCAAUAUUACGUUUC	-3.08 ± 0.17	-2.53 ± 0.34
AAAUAGCAAUAUUACGAACA	-0.981 ± 0.14	-0.0486 ± 0.12
CUCGAGCAAUAUUACGACGG	-1.94 ± 0.15	-0.385 ± 0.18
CAACAGCAAUAUUACGGGGG	-2.07 ± 0.13	-1.08 ± 0.1
AGGCAGCAAUAUUACGUGAG	-0.654 ± 0.066	-0.526 ± 0.09
AAUUAGCAAUAUUACGGGCG	-0.93 ± 0.12	-1.36 ± 0.13
GUAGAGCAAUAUUACGAGCU	-2.67 ± 0.22	-1.66 ± 0.23
CGACAGCAAUAUUACGAGGU	-3.14 ± 0.33	-1.73 ± 0.2
